Results: patent US20030219839A1 (published 2003)

Columns and labels:
[1] = target: T1, recombinant human platelet derived growth factor (PDGF-BB) (human, UniProt P01127 82-190); test: BIAcore SPR, cytokine immobilised via primary amines, antibody as analyte
T1 construct: also called human PDGF-BB; PDGF-BB cytokine
Description: BIAcore analysis of the original and humanized anti-PDGF clones was performed according to standard procedures. The cytokine was immobilized on the BIAchip by chemical linking via primary amines and the binding behavior of the antibodies was analyzed over 30 min.

[2] = target: T1, recombinant human platelet derived …; test: competition ELISA: antibody pre-incubated with 10 ng/ml PDGF-BB, then added to a plate coated with PDGF receptor beta/Fc; receptor-bound PDGF-BB detected by biotinylated anti-PDGF-BB antibody and streptavidin-alkaline phosphatase, OD405; blocked partner: PDGF receptor beta/Fc
Description: The ability of the rabbit scFvs to compete with the PDGF-1 receptor for binding to the PDGF-BB cytokine was determined in a competition assay. Binding of the scFvs to their target epitope on the PDGF-BB cytokine prevents PDGF-BB binding to the PDGF receptor coated on the plates. High protein binding 96-well plates were coated with 10 ng/well of recombinant human PDGF receptor beta/Fc chimera (R&D Systems, MN) in PBS overnight at 4° C. The plates were blocked with 5% sucrose/1% BSA/PBS for 1 h at 37° C. Serial dilutions of purified anti-PDGF-BB antibody were incubated with 10 ng/ml of recombinant human PDGF-BB at room temperature for 30 minutes before being added to the blocked and washed plates. After 2 h at room temperature, the plates were washed with PBS/0.05% Tween followed by another 2-hour incubation with biotinylated anti-PDGF-BB antibody (R&D Systems, MN) at room temperature. Next, streptavidin-alkaline phosphatase (Pierce, Rockford, Ill.) was added to the plates and incubated for 30 minutes at room temperature. The plates were washed 3×with PBS/0.05% Tween and 3× with PBS. Sigma 104 substrate suspended in PNPP buffer was added after the final wash step and the signal at OD405 was determined. […] F3 was then selected for humanization.

rat PDGF BB = rat PDGF BB (rat, UniProt Q05028 74-182); test: solid phase ELISA: plate coated with the named form of PDGF, serial dilutions of mouse C1 Fab (axis in dilutions 1/x, no mass unit), OD
Sequence of rat PDGF BB (Q05028 74-182): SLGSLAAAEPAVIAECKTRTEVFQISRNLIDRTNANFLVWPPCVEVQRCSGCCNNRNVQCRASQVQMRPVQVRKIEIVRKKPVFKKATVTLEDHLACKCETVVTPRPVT

T1 sequence (P01127 82-190): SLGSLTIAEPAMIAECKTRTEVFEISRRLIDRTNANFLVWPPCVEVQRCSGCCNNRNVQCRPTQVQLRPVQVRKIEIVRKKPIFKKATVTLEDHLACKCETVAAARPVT

B1: C1 mouse anti-PDGF Fab (Fab, V domains shown)
VH: QVLLEQSGSELVRPGASVKLSCKASGYTFTSTWMNWVKKRPDQGLEWIGRIDPYDSETHYNQKFKDKAILTVDKSSSTAYMQLSRLTSEDSAVYYCARGGHMITPAMDYWGQGTSVTVSS
VL: VQVLTQSPAIMSASPGEKVTITCTASSSVSYMHWFQQKPGTSPKLLIYSASNLASGVPARFSGSGSGTSYSLTISRMEAEDAATYYCQQRSSYPWTFGGGTKLEIKR
notes: Mouse light chain and heavy chain Fd cloned in phagemid pRL4; purified over a Ni column; detected by an HA tag; also called mouse C1; murine antibody C1
[1]
  Ka: 2.31e+09 M⁻¹
  Kd: 0.433 nM
  koff: 4.62e-05 s⁻¹
  kon: 107000 M⁻¹ s⁻¹
[2]
  IC50 (read off the curve): ~0.4 µg/mL
Rat PDGF BB
  binding result: no binding
